From patent publication US20100048604A1, “Ligands for Aldoketoreductases” (priority 2004, published 2010)

Legend:
Experiment in all cases: Steady state kinetic parameters of fluorogenic substrates with purified AKR1C isozymes
Format in all cases: biochemical, human
Conditions in all cases: other: isozyme 1C2, potassium phosphate buffer pH 6, NADPH, fluorimetric
[1] = substrate: CC(=O)c1cc(=O)oc2c3c(ccc12)NCCC3
Description: (§1) AKR1C2 and AKR1C3 Selective Probes: Probes (5a-5i) were examined as substrates for the four purified human HSD isozymes (AKR1C1-AKR1C4) under standard assay conditions [catalytic quantities of enzyme, an excess of cofactor (NADPH)]. The initial reaction rates were used to derive standard kinetic parameters (kcat and Km, Materials and Methods).
(§2) Substrate tolerance of AKR1Cs: Isozyme Activity with 5a-5i: Activity of the second generation of fluorogenic substrates with the AKR1C isozymes was determined as follows. To a STARNA semi-micro fluorimeter cell (with 4 polished windows) was added 100 μL of 1 M potassium phosphate buffer (pH 6), 840 μL doubly deionized water, and 20 μL of 12.5 mM NADPH. After mixing the aqueous components thoroughly, 20 μL of acetonitrile was added as a cosolvent and mixed well. 20 μL of 2.5 mM second generation fluorogenic ketone in acetonitrile (5a-5i) was then added and mixed. 4 μL of undiluted AKR1C (provided generously by the Penning lab at concentrations of 2.5 mg/mL) were then added to the cuvette for a total of 10 μg purified enzyme in the 1 mL assay volume. Fluorescence arising from the respective alcohol reduction product was then monitored over the course of 5-10 minutes.
(§3) Binding constant and catalytic rates (Km and kcat) of the second generation of fluorogenic substrates was determined as follows. To a STARNA semi-micro fluorometer cell (with 4 polished windows) was added 100 μL of 1 M potassium phosphate buffer (pH 6), 840 μL doubly deionized water, and 20 AL of 12.5 mM NADPH. After mixing the aqueous components thoroughly, 20 μL of acetonitrile was added as a cosolvent and mixed well. 20 μL of the second generation fluorogenic ketone (5a-5i) was then added and mixed to achieve assay concentrations of 5Km to Km/5. To initiate the reduction, 2 or 4 μL of diluted AKR1C (1:2 to 1:100, depending on the kinetics of a particular isozyme's reduction of a substrate) was then added to the cuvette. Fluorescence arising from the respective alcohol reduction product was then monitored over the course of 3 minutes (Excitation and emission band pass slits both at 4 nm, lamp 700 V, λexc 410 nm, λem 510). The rate of product formation, expressed in units of nanomoles per minute, were calculated according to previously published procedures (Wierzchowski, J.; Dafeldecker, W. P.; Holmquist, B.; Vallee, B. L. Anal. Biochem. 1989, 178, 57-62):
(§4) initial rate=[nst×(Ft−F0)/(Fst)]/t (1)
(§5) where Ft and F0 represent the fluorescence at times t and 0 minutes, nst is the nanomoles of product in a known concentration of product, and Fst is the fluorescence resulting from nst of product. Kinetic parameters were approximated by GraFit (Erithacus Software, Surrey, UK) nonlinear regression analysis program to fit the untransformed data to a hyperbolic function as originally described (Wierzchowski, J.; Dafeldecker, W. P.; Holmquist, B.; Vallee, B. L. Anal. Biochem. 1989, 178, 57-62). Reported enzymatic kinetic parameters are the average of three independent determinations from three different preparations of substrate and enzyme.

[2] = substrate: CC(=O)c1cc(=O)oc2c3c4c(cc12)CCCN4CCC3
Description: as §1, §2, §3, §4, §5

[3] = substrate: CC(=O)c1cc(=O)oc2cc(N(C)C)ccc12
Description: as §1, §2, §3, §4, §5

[4] = substrate: CC(=O)c1cc(=O)oc2cc3c(cc12)CCCN3
Description: as §1, §2, §3, §4, §5

[5] = substrate: O=C(c1ccccc1)c1cc(=O)oc2c3c4c(cc12)CCCN4CCC3
Description: as §1, §2, §3, §4, §5

[6] = substrate: O=C1CCc2c1c1cc3c4c(c1oc2=O)CCCN4CCC3
Description: as §1, §2, §3, §4, §5

B1: AKR1C2 (Homo sapiens) (protein)
chain: MDSKYQCVKLNDGHFMPVLGFGTYAPAEVPKSKALEAVKLAIEAGFHHIDSAHVYNNEEQVGLAIRSKIADGSVKREDIFYTSKLWSNSHRPELVRPALERSLKNLQLDYVDLYLIHFPVSVKPGEEVIPKDENGKILFDTVDLCATWEAMEKCKDAGLAKSIGVSNFNHRLLEMILNKPGLKYKPVCNQVECHPYFNQRKLLDFCKSKDIVLVAYSALGSHREEPWVDPNSPVLLEDPVLCALAKKHKRTPALIALRYQLQRGVVVLAKSYNEQRIRQNVQVFEFQLTSEEMKAIDGLNRNVRYLTLDIFAGPPNYPFSDEY
notes: gift of the Penning lab (University of Pennsylvania School of Medicine)
B1 was tested, and the Km [1] was 4.8 µM, the Km [2] was 7.3 µM and the Km [3] was 7.2 µM. For the same protein, the Km [4] was 43.3 ± 4.4 4.3 ± 0.2 μM, the Km [5] was 3 µM and the Km [6] was 4.5 µM. The kcat [6] was 1.6 0.40 7.2 no activity and the kcat/Km [6] was 0.39 0.08 56 min^−1 μM^−1.
